# How the values were obtained:
# [1] = target: HSV-1 gB ectodomain gB730 (residues 31-730) (HSV-1 (strain KOS)) (UniProt P06437); test: SDS-PAGE under mildly denaturing conditions + Western blot
# [2] = target: HSV-1 gB ectodomain gB730 (residues 31-730) (HSV-1 (strain KOS)) (UniProt P06437); test: SDS-PAGE under mildly denaturing conditions
substance,measurement,setting,value
HSV-1 gB ectodomain gB730 (residues 31-730) (from UniProt P06437 31-730) (domain or fragment),stoichiometry N,[1],3
same,stoichiometry N,[2],3
